Measured values from patent US12269859B2, “Synthetic immune receptors and methods of use thereof” (Angeles Therapeutics, Inc., priority 2016, dated 2025).

B1: 090116-F02 (protein)
chain: MALPVTALLLPLALLLHAARPLEGKPIPNPLLGLDSTGSGEDLKNVFPPEVAVFEPSKAEIAHTQKATLVCLATGFYPDHVELSWWVNGKEVHSGVCTDPQPLKEQPALNDSRYCLSSRLRVSATFWQNPRNHFRCQVQFYGLSENDEWTQDRAKPVTQIVSAEAWGRADCGITSASYHQGVLSATILYEILLGKATLYAVLVSALVLMAMVKRKDSRGRAKRSGSGATNFSLLKQAGDVEENPGPTSMALPVTALLLPLALLLHAARPDDIVMTQSPDSLTVSLGERTTINCKSSQSVLDSSKNKNSLAWYQQKPGQPPKLLLSWASTRESGIPDRFSGSGSGTDFTLTIDSLQPEDSATYYCQQSAHFPITFGQGTRLEIKGGGGSGGGGSGGGGSQVQLVQSGAEVKKPGASVKVSCKASGYTFTNYGMNWVKQAPGQGLKWMGWINTYTGEPTYADDFKGRVTMTSDTSTSTAYLELHNLRSDDTAVYYCARWSWSDGYYVYFDYWGQGTTVTVSSTREQKLISEEDGSGIQNPDPAVYQLRDSKSSDKSVCLFTDFDSQTNVSQSKDSDVYITDKCVLDMRSMDFKSNSAVAWSNKSDFACANAFNNSIIPEDTFFPSSDVPCDVKLVEKSFETDTNLNFQNLSVIGFRILLLKVAGFNLLMTLRLWSSRAKRSGSGVKQTLNFDLLKLAGDVESNPGPSRGHMTEYKPTVRLATRDDVPRAVRTLAAAFADYPATRHTVDPDRHIERVTELQELFLTRVGLDIGKVWVADDGAAVAVWTTPESVEAGAVFAEIGPRMAELSGSRLAAQQQMEGLLAPHRPKEPAWFLATVGVSPDHQGKGLGSAVVLPGVEAAERAGVPAFLETSAPRNLPFYERLGFTVTADVEVPEGPRTWCMTRKPGA
modifications: Synthetic Immune Receptor (SIR)
B2: 012517-I12 (protein)
chain: MALPVTALLLPLALLLHAARPLEGKPIPNPLLGLDSTGSGEDLKNVFPPEVAVFEPSKAEIAHTQKATLVCLATGFYPDHVELSWWVNGKEVHSGVCTDPQPLKEQPALNDSRYCLSSRLRVSATFWQNPRNHFRCQVQFYGLSENDEWTQDRAKPVTQIVSAEAWGRADCGITSASYHQGVLSATILYEILLGKATLYAVLVSALVLMAMVKRKDSRGRAKRSGSGATNFSLLKQAGDVEENPGPTSMALPVTALLLPLALLLHAARPDIQLTQSPSSLSASVGDRVTITCRASQGISSVLAWYQQKPGKAPKLLIYDASSLESGVPSRFSGSGSGTDFTLTISSLQPEDFATYYCQQFNSSITFGQGTKLEIKRTVAAGGGGSGGGGSGGGGSQVQLVQSGAEVKKPGSSVKVSCKASGGTFSDYAISWVRQAPGQGLEWMGRIIPILGVANYAQKFQGRVTITADKSTRTAYMELSSLRSEDTAVYYCARNWADAFDIWGQGTMVTVSSASTREQKLISEEDGSGIQNPDPAVYQLRDSKSSDKSVCLFTDFDSQTNVSQSKDSDVYITDKCVLDMRSMDFKSNSAVAWSNKSDFACANAFNNSIIPEDTFFPSSDVPCDVKLVEKSFETDTNLNFQNLSVIGFRILLLKVAGFNLLMTLRLWSSRAKRSGSGVKQTLNFDLLKLAGDVESNPGPSRGHMTEYKPTVRLATRDDVPRAVRTLAAAFADYPATRHTVDPDRHIERVTELQELFLTRVGLDIGKVWVADDGAAVAVWTTPESVEAGAVFAEIGPRMAELSGSRLAAQQQMEGLLAPHRPKEPAWFLATVGVSPDHQGKGLGSAVVLPGVEAAERAGVPAFLETSAPRNLPFYERLGFTVTADVEVPEGPRTWCMTRKPGA
B3: 051116-C05 (protein)
chain: MALPVTALLLPLALLLHAARPDIVMTQSPDSLAVSLGERATINCRASKSVSTSGYSFMHWYQQKPGQPPKLLIYLASNLESGVPDRFSGSGSGTDFTLTISSLQAEDVAVYYCQHSREVPWTFGQGTKVEIKRLEDLKNVFPPEVAVFEPSEAEISHTQKATLVCLATGFYPDHVELSWWVNGKEVHSGVSTDPQPLKEQPALNDSRYCLSSRLRVSATFWQNPRNHFRCQVQFYGLSENDEWTQDRAKPVTQIVSAEAWGRADCGFTSESYQQGVLSATILYEILLGKATLYAVLVSALVLMAMVKRKDSRGRAKRSGSGATNFSLLKQAGDVEENPGPTSMDWIWRILFLVGAATGAHSFEQVQLVQSGAEVKKPGASVKVSCKASGYTFTNYGMNWVRQAPGQGLEWMGWINTYTGEPTYADAFKGRFAFSLDTSTSTAYLQINSLRSDDTAVYYCARDYGDYGMDYWGQGTTVTVSSTRIQNPDPAVYQLRDSKSSDKSVCLFTDFDSQTNVSQSKDSDVYITDKTVLDMRSMDFKSNSAVAWSNKSDFACANAFNNSIIPEDTFFPSPESSCDVKLVEKSFETDTNLNFQNLSVIGFRILLLKVAGFNLLMTLRLWSSRAKRSGSGVKQTLNFDLLKLAGDVESNPGPSRGHMTEYKPTVRLATRDDVPRAVRTLAAAFADYPATRHTVDPDRHIERVTELQELFLTRVGLDIGKVWVADDGAAVAVWTTPESVEAGAVFAEIGPRMAELSGSRLAAQQQMEGLLAPHRPKEPAWFLATVGVSPDHQGKGLGSAVVLPGVEAAERAGVPAFLETSAPRNLPFYERLGFTVTADVEVPEGPRTWCMTRKPGA
modifications: Synthetic Immune Receptor (SIR)
B4: 060717-T02 (protein)
chain: MALPVTALLLPLALLLHAARPDIQMTQSPSSLSASVGDRVTINCKASQDINSYLSWFQQKPGKAPKTLIYRANRLVDGVPSRFSGSGSGQDYTLTISSLQPEDFATYYCLQYDEFPLTFGGGTKVEIKLEIQNPDPAVYQLRDSKSSDKSVCLFTDFDSQTNVSQSKDSDVYITDKCVLDMRSMDFKSNSAVAWSNKSDFACANAFNNSIIPEDTFFPSSDVPCDVKLVEKSFETDTNLNFQNLSVIGFRILLLKVAGFNLLMTLRLWSSRAKRSGSGVKQTLNFDLLKLAGDVESNPGPTSMDWIWRILFLVGAATGAHSFEQVQLVQSGAEVKKPGASVKVSCKASGYTFTNYDINWVRQAPGQGLEWIGWIYPGDGSTKYNEKFKAKATLTADTSTSTAYMELRSLRSDDTAVYYCASGYEDAMDYWGQGTTVTVSSTREDLKNVFPPEVAVFEPSKAEIAHTQKATLVCLATGFYPDHVELSWWVNGKEVHSGVCTDPQPLKEQPALNDSRYCLSSRLRVSATFWQNPRNHFRCQVQFYGLSENDEWTQDRAKPVTQIVSAEAWGRADCGITSASYHQGVLSATILYEILLGKATLYAVLVSALVLMAMVKRKDSRGRAKRSGSGATNFSLLKQAGDVEENPGPSRGHMTEYKPTVRLATRDDVPRAVRTLAAAFADYPATRHTVDPDRHIERVTELQELFLTRVGLDIGKVWVADDGAAVAVWTTPESVEAGAVFAEIGPRMAELSGSRLAAQQQMEGLLAPHRPKEPAWFLATVGVSPDHQGKGLGSAVVLPGVEAAERAGVPAFLETSAPRNLPFYERLGFTVTADVEVPEGPRTWCMTRKPGA
B5: 022217-X03 (protein)
chain: MALPVTALLLPLALLLHAARPLEGKPIPNPLLGLDSTGSGEDLKNVFPPEVAVFEPSKAEIAHTQKATLVCLATGFYPDHVELSWWVNGKEVHSGVCTDPQPLKEQPALNDSRYCLSSRLRVSATFWQNPRNHFRCQVQFYGLSENDEWTQDRAKPVTQIVSAEAWGRADCGITSASYHQGVLSATILYEILLGKATLYAVLVSALVLMAMVKRKDSRGRAKRSGSGATNFSLLKQAGDVEENPGPTSMALPVTALLLPLALLLHAARPDIQMTQSPSSLSASVGDRVTINCKASQDINSYLSWFQQKPGKAPKTLIYRANRLVDGVPSRFSGSGSGQDYTLTISSLQPEDFATYYCLQYDEFPLTFGGGTKVEIKGGGGSGGGGSGGGGSQVQLVQSGAEVKKPGASVKVSCKASGYTFTNYDINWVRQAPGQGLEWIGWIYPGDGSTKYNEKFKAKATLTADTSTSTAYMELRSLRSDDTAVYYCASGYEDAMDYWGQGTTVTVSSTREQKLISEEDGSGIQNPDPAVYQLRDSKSSDKSVCLFTDFDSQTNVSQSKDSDVYITDKCVLDMRSMDFKSNSAVAWSNKSDFACANAFNNSIIPEDTFFPSSDVPCDVKLVEKSFETDTNLNFQNLSVIGFRILLLKVAGFNLLMTLRLWSSRAKRSGSGVKQTLNFDLLKLAGDVESNPGPSRGHMTEYKPTVRLATRDDVPRAVRTLAAAFADYPATRHTVDPDRHIERVTELQELFLTRVGLDIGKVWVADDGAAVAVWTTPESVEAGAVFAEIGPRMAELSGSRLAAQQQMEGLLAPHRPKEPAWFLATVGVSPDHQGKGLGSAVVLPGVEAAERAGVPAFLETSAPRNLPFYERLGFTVTADVEVPEGPRTWCMTRKPGA
B6: 032216-W04 (protein)
chain: MALPVTALLLPLALLLHAARPDEIVLTQSPGSLAVSPGERVTMSCKSSQSVFFSSSQKNYLAWYQQIPGQSPRLLIYWASTRESGVPDRFTGSGSGTDFTLTISSVQPEDLAIYYCHQYLSSRTFGQGTKLEIKRLEGKPIPNPLLGLDSTGSGEDLKNVFPPEVAVFEPSKAEIAHTQKATLVCLATGFYPDHVELSWWVNGKEVHSGVCTDPQPLKEQPALNDSRYCLSSRLRVSATFWQNPRNHFRCQVQFYGLSENDEWTQDRAKPVTQIVSAEAWGRADCGITSASYHQGVLSATILYEILLGKATLYAVLVSALVLMAMVKRKDSRGRAKRSGSGATNFSLLKQAGDVEENPGPTSMDWIWRILFLVGAATGAHSFEQVQLQQPGAEVVKPGASVKMSCKASGYTFTSYYIHWIKQTPGQGLEWVGVIYPGNDDISYNQKFQGKATLTADKSSTTAYMQLSSLTSEDSAVYYCAREVRLRYFDVWGQGTTVTVSSTREQKLISEEDGSGIQNPDPAVYQLRDSKSSDKSVCLFTDFDSQTNVSQSKDSDVYITDKCVLDMRSMDFKSNSAVAWSNKSDFACANAFNNSIIPEDTFFPSSDVPCDVKLVEKSFETDTNLNFQNLSVIGFRILLLKVAGFNLLMTLRLWSSRAKRSGSGVKQTLNFDLLKLAGDVESNPGPSRGHMTEYKPTVRLATRDDVPRAVRTLAAAFADYPATRHTVDPDRHIERVTELQELFLTRVGLDIGKVWVADDGAAVAVWTTPESVEAGAVFAEIGPRMAELSGSRLAAQQQMEGLLAPHRPKEPAWFLATVGVSPDHQGKGLGSAVVLPGVEAAERAGVPAFLETSAPRNLPFYERLGFTVTADVEVPEGPRTWCMTRKPGA
modifications: Polynucleotide encoding a Synthetic Immune Receptor (SIR)

System: target antigen-expressing cell line
Assay: Jurkat NFAT-GFP assay, coculture with target cell lines expressing the respective target antigen (summary Table 10A)
Type: cell-based, human
Design: key: The signs +/−, +, 2+ etc. after the name of the cell lines indicate the relative degree of positivity on the Jurkat-NFAT-GFP assay as measured by the % GFP positive cells; +: relative degree of positivity on the Jurkat-NFAT-GFP assay as measured by the % GFP positive cells; 2+: relative degree of positivity on the Jurkat-NFAT-GFP assay as measured by the % GFP positive cells
Details: relative % GFP positive cells; for NFAT-GFP ASSAY Positive Cell lines: HL60: SIR-expressing Jurkat-NFAT-GFP cells cocultured with HL60
Outline: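 Read-out: % GFP+ cells by FACS. SIR-transduced, puromycin-selected Jurkat NFAT-GFP (IL-2 promoter reporter) cocultured ~4–18 h with target line, E:T ~1:2; parental cells as control; graded +/−, +, 2+ relative to parental.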

Molecule	NFAT-GFP ASSAY Positive Cell lines: HL60	further results
B1	HL60 (+/−)	–
B2	HL60 (+/−)	–
B3	–	NFAT-GFP ASSAY Positive Cell lines: THP1 (SIR-expressing Jurkat-NFAT-GFP cells cocultured with THP1): THP1 (+/−)
B4	HL60 (2+)	–
B5	–	NFAT-GFP ASSAY Positive Cell lines: U266 (SIR-expressing Jurkat-NFAT-GFP cells cocultured with U266): U266 (+/−)
B6	HL60 (+), MOLM13	–
